Measurements: patent US20020192780

Key:
SEQ ID NO:2 (KVLDGQDP) = molecular target: T1, SEQ ID NO:2 (KVLDGQDP)
T1 chain: KVLDGQDP

SEQ ID NO:1 (KVLDPVKG) = molecular target: T2, SEQ ID NO:1 (KVLDPVKG)
T2 chain: KVLDPVKG

[1] = molecular target: PLA2 (Bovine pancreas, EC 3.1.1.4, Sigma), P00593
Chain of PLA2 (Bovine pancreas, EC 3.1.1.4, Sigma), P00593 (P00593 23-145): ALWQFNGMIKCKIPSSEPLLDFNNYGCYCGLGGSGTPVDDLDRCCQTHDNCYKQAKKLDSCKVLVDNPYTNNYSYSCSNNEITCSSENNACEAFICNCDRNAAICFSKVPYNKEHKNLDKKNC

B1: TGase (Guinea pig liver, EC 2.3.2.13, Sigma) (protein)
chain: AEDLILERCDLQLEVNGRDHRTADLCRERLVLRRGQPFWLTLHFEGRGYEAGVDTLTFNAVTGPDPSEEAGTMARFSLSSAVEGGTWSASAVDQQDSTVSLLLSTPADAPIGLYRLSLEASTGYQGSSFVLGHFILLYNPRCPADAVYMDSDQERQEYVLTQQGFIYQGSAKFINGIPWNFGQFEDGILDICLMLLDTNPKFLKNAGQDCSRRSRPVYVGRVVSAMVNCNDDQGVLQGRWDNNYSDGVSPMSWIGSVDILRRWKDYGCQRVKYGQCWVFAAVACTVLRCLGIPTRVVTNFNSAHDQNSNLLIEYFRNESGEIEGNKSEMIWNFHCWVESWMTRPDLEPGYEGWQALDPTPQEKSEGTYCCGPVPVRAIKEGHLNVKYDAPFVFAEVNADVVNWIRQKDGSLRKSINHLVVGLKISTKSVGRDEREDITHTYKYPEGSEEEREAFVRANHLNKLATKEEAQEETGVAMRIRVGQNMTMGSDFDIFAYITNGTAESHECQLLLCARIVSYNGVLGPVCSTNDLLNLTLDPFSENSIPLHILYEKYGDYLTESNLIKVRGLLIEPAANSYVLAERDIYLENPEIKIRVLGEPKQNRKLIAEVSLKNPLPVPLLGCIFTVEGAGLTKDQKSVEVPDPVEAGEQAKVRVDLLPTEVGLHKLVVNFECDKLKAVKGYRNVIIGPA
TGase activity (incorporation of 14C-putrescine into succinylated casein), peptide 1x10^-8 M preincubated with the enzyme (SEQ ID NO:2 (KVLDGQDP)): significantly reduced the PLA2 and TGase activities | TGase activity (incorporation of 14C-putrescine into succinylated casein), peptide 1x10^-8 M preincubated with the enzyme (SEQ ID NO:1 (KVLDPVKG)): significantly reduced the PLA2 and TGase activities | PLA2 activity [1]: PLA2 activity was increased about 2-fold after TGase 2 treatment
